The results in this text go back to patent publication US20160311868A1.

The target of data set [1] is TgMyoA heavy chain with C-terminal Bio-tag and FLAG-tag (TgMyoA-cBio-cFLAG) (Toxoplasma gondii) (UniProt O00934). The data set is described as follows: cell-based or functional assay.
For data set [2], the system named is skeletal muscle actin.

The substance “TgMLC1, Toxoplasma gondii myosin light chain MLC1 (regulatory light chain), untagged” showed a speed of actin movement, in vitro motility assay (TgMyoA with TgMLC1 only) in data set [1] of 1.5 µm/s.

Regarding “TgMyoA expressed with both light chains (TgMyoA heavy chain with bound TgMLC1 and TgELC1)”, in data set [2], the “Km for actin, steady-state actin-activated ATPase” value was “a Km for actin of 136±22 µM at 30 °C”.
